Consider two molecules from publication doi:10.1101/2020.11.06.371997.

Data set [1] deals with T1, Trf2ΔN-FG3 (UmTrf2) (Ustilago maydis, UniProt A0A0D1E1Z3 415-1528). The data set is described as follows: EMSA.
Data set [2] deals with T1, Trf2ΔN-FG3 (UmTrf2). The data set is described as follows: EMSA. The source holds these as a separate data set. On the technique in general: In EMSA bound probe runs differently from free probe, usually more slowly.

B1: TTAGGG4 duplex (dsDNA)
DNA 1: TTAGGGTTAGGGTTAGGGTTAGGG
DNA 2: CCCTAACCCTAACCCTAACCCTAA
In general, Kd refers to a measure of binding affinity in units of concentration. B1 displayed a Kd in data set [1] of 20 nM.

B2: TTAGGG2 duplex (dsDNA)
DNA 1: GGTTAGGGTTAG
DNA 2: CTAACCCTAACC
Consider B2, for which, in data set [2], the binding result is recorded as “no binding”.
